Reference: publication PMC3460868, “Crosstalk of Escherichia coli FadR with Global Regulators in Expression of Fatty Acid Transport Genes”

B1: fadL FadR site 1 (dsDNA)
DNA 1: GCAACATTCCAGCTGGTCCGACCTATACTCTCGCC
DNA 2: GGCGAGAGTATAGGTCGGACCAGCTGGAATGTTGC
B2: fadD CRP site (dsDNA)
DNA 1: GTAAAGATAAAAATAAATAGTGACGCGCTTCGCAACCTTTTCGTTGGG
DNA 2: CCCAACGAAAAGGTTGCGAAGCGCGTCACTATTTATTTTTATCTTTAC
B3: fadH CRP site 1 (probe 1) (dsDNA)
DNA 1: GTAACCTGGATAAAACGCGACAAGCGTCGCATCCGGCGTTATCACCGG
DNA 2: CCGGTGATAACGCCGGATGCGACGCTTGTCGCGTTTTATCCAGGTTAC
B4: fadH CRP site 2 (probe 2) (dsDNA)
DNA 1: CACCGGGCGTATTCTTTTTGAATCCCATCACAAACCCCGCACTCC
DNA 2: GGAGTGCGGGGTTTGTGATGGGATTCAAAAAGAATACGCCCGGTG
B5: fadL FadR site 2 (dsDNA)
DNA 1: CTCTCGCCACTGGTCTGATTTCTAAGATGTACCTC
DNA 2: GAGGTACATCTTAGAAATCAGACCAGTGGCGAGAG
B6: fadD FadR site 1 (dsDNA)
DNA 1: GTAATTATCAAGCTGGTATGATGAGTTAATATTATG
DNA 2: CATAATATTAACTCATCATACCAGCTTGATAATTAC
B7: fadL CRP site 2 (probe 2) (dsDNA)
DNA 1: CCCTACACTTCGCGCTCCTGTTACAGCACGTAACATAGTTTGTATAAAAATAAATC
DNA 2: GATTTATTTTTATACAAACTATGTTACGTGCTGTAACAGGAGCGCGAAGTGTAGGG

How the values were obtained:
Conditions in all cases: protein: recombinant; tags: His6 (pET28); chain copies: 2; label: DIG-ddUTP 3' (terminal transferase); blunt
[1] = molecular target: T1, FadR (Escherichia coli, UniProt P0A8V6 1-239); experiment: EMSA; essentially complete binding by 50 nM FadR; Roche binding buffer (composition not given), 15 min, room temperature; FadR: 0.1 pmol probe in 10 ul, 0-10 pmol protein, 7% native PAGE; CRP: 0.6 pmol probe in 20 ul (legend; Methods say 0.1 or 0.2 pmol), 5-20 pmol protein, 6.5% native PAGE
T1 sequence (P0A8V6 whole entry): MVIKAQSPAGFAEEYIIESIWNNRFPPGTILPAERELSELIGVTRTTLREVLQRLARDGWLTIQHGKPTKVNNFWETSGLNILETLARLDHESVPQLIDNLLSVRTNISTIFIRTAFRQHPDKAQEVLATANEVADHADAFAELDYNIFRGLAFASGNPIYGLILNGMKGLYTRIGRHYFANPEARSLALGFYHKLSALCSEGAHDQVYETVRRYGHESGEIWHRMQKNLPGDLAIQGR

[2] = molecular target: CRP (Escherichia coli, UniProt P0ACJ8 1-210); experiment: EMSA; cAMP (200 pmol in 20 ul); Roche binding buffer (composition not given), 15 min, room temperature; FadR: 0.1 pmol probe in 10 ul, 0-10 pmol protein, 7% native PAGE; CRP: 0.6 pmol probe in 20 ul (legend; Methods say 0.1 or 0.2 pmol), 5-20 pmol protein, 6.5% native PAGE
Chain of CRP (P0ACJ8 whole entry): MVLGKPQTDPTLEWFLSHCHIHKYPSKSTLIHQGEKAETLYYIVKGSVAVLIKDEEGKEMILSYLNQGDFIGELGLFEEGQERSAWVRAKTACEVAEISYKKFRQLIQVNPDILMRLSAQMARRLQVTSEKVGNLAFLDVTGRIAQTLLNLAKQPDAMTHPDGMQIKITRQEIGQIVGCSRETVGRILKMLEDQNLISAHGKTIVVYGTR

[3] = molecular target: T1, FadR; experiment: EMSA; affinity comparable to the fadL sites; Roche binding buffer (composition not given), 15 min, room temperature; FadR: 0.1 pmol probe in 10 ul, 0-10 pmol protein, 7% native PAGE; CRP: 0.6 pmol probe in 20 ul (legend; Methods say 0.1 or 0.2 pmol), 5-20 pmol protein, 6.5% native PAGE

Row | Binder | binding result [2] | other results
1 | B1 | – | binding result [1]: binds
2 | B2 | binds | –
3 | B3 | binds | –
4 | B4 | binds | –
5 | B5 | – | binding result [1]: binds
6 | B6 | – | binding result [3]: binds
7 | B7 | no binding | –
